US20230147852A1 (SORRENTO THERAPEUTICS, published 2023)

What was measured:
[1] = target: T1, Recombinant human LAG3-His (Sino Biological; catalogue No. 16498-H08H) (human, UniProt P18627 23-450); test: SPR (Biacore): antibody captured on anti-human Fc, human LAG3-His in solution
T1 construct: also called human LAG3 His-tag protein; CD223
T1 sequence: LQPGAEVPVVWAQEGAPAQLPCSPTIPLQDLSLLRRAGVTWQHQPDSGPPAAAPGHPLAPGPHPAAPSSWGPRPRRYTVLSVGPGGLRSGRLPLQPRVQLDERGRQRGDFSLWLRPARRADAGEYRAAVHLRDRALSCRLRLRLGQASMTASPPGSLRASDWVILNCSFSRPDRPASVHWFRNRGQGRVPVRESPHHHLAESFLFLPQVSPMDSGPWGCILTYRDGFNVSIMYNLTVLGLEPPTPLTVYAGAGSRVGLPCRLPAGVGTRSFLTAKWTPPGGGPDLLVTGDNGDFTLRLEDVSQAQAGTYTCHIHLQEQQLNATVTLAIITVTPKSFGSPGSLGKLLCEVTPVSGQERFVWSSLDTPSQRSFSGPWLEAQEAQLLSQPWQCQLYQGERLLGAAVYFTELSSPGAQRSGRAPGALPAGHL

[2] = target: T2, recombinant human LAG3-Fc Tag protein (Sino Biological; catalogue no. 16498-H05H) (human, UniProt P18627); test: ELISA: antibody coated at 5 µg/mL captures human LAG3-Fc at 2 µg/mL; how the black bars (LAG3 binding) were detected is not told
T2 construct: recombinant, soluble
T2 sequence (fusion chain, looked up): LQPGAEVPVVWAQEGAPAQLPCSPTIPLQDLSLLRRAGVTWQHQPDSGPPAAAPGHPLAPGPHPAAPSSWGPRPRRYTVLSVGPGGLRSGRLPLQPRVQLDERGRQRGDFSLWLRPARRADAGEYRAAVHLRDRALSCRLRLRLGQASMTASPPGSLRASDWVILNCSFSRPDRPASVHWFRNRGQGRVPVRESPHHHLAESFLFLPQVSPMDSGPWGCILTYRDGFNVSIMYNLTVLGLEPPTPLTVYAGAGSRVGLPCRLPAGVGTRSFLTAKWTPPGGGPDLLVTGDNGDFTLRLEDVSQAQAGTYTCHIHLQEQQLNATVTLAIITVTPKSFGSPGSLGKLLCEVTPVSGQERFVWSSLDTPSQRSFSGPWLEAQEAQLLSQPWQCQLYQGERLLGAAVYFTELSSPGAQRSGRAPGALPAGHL

[3] = target: T3, Mouse LAG3 (mouse, UniProt Q61790); test: […], antibody ([…]) at 2 µg/mL, […]
T3 construct: recombinant, His-tagged, coated on a Ni-NTA plate; also called mouse LAG3-His Tag recombinant protein
T3 sequence (antigen, looked up): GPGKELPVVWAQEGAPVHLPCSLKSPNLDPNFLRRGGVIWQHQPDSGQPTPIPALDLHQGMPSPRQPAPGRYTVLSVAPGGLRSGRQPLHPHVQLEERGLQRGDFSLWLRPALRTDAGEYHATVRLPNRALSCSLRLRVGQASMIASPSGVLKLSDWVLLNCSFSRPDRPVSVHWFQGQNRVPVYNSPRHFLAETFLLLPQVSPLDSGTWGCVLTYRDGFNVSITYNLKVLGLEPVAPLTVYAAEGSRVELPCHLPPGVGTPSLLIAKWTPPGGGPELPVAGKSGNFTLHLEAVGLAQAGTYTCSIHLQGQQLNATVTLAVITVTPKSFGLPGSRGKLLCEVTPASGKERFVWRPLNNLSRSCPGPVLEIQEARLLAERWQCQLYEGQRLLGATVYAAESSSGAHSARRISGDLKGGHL

[4] = target: T4, human LAG3 on LAG3/NFAT-Luc reporter Jurkat cells (human, UniProt P18627); test: Flow cytometry on human LAG3/NFAT-Luc Jurkat cells, ΔMFI = LAG3 Jurkat minus wild-type Jurkat, AF647 anti-human IgG
T4 construct: on the surface of transfected Jurkat cells; also called human LAG3 expressed on Jurkat cells (BPS Biosciences; catalogue No. 71278)
T4 sequence (antigen, looked up): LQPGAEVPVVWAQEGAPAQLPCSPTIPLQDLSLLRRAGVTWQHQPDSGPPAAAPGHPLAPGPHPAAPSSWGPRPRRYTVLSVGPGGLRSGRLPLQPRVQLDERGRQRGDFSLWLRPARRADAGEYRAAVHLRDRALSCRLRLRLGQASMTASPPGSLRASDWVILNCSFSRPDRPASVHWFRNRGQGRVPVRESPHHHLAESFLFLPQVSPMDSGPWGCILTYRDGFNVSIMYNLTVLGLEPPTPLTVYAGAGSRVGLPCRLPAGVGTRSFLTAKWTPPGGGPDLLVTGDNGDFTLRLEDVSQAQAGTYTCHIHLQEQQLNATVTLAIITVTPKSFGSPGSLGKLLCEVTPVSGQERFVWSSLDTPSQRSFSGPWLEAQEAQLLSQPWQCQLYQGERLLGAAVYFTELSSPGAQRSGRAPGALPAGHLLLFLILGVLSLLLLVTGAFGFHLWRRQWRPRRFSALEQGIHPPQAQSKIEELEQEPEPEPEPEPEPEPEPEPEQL

[5] = target: T1, Recombinant human LAG3-His (Sino …); test: ELISA: antibody coated at 5 µg/mL, soluble human LAG3-His titrated (x-axis: Human LAG3, µg/ml), OD at 450nm
[6] = target: T1, Recombinant human LAG3-His (Sino …); test: SPR (Biacore), antibody captured by anti-human Fc, human LAG3-His as analyte, 1:1 model
[7] = target: T3, Mouse LAG3; test: ELISA: LAG3-His coated at 2 µg/mL on a Ni-NTA plate, antibody (IgG4) at 2 µg/mL, anti-human Fc-HRP, OD at 450nm

Binder	binding result [1]	binding result [2]	binding result [3]	binding result [4]	EC50 (read off the curve) [5] [µg/mL]	Kd [6] [nM]	binding result [7]
8D9 (antibody, V domains shown, also called anti-LAG3 antibody 8D9; Clone 8D9) VH: QVQLVQSGAEVRKPGSSVKVSCKASGGTFSNYAFSWVRQAPGLGLEWLGAIIPEFDTANYAQKFKDRVTITADDSTTTVYMELSSLRSEDTAVYYCASGMWDYYGSGSSIDYWGQGTLVTVSS VL: QSVLTQPPSASGTPGQRVTISCSGSNSDIGRNPVNWYHQFPGTAPKLLIFSNSHRPSGVPDRFSGSKSGTSASLAIGGLQSDDEADYYCAAWSDSLNGYVFGTGTKLTVL	binds	binds	no binding (tested: 2 µg/mL)	binds	–	–	–
1C5-3A6 (antibody, V domains shown, also called anti-LAG3 antibody 1C5-3A6) VH: QVQLVQSGAEVKKPGASVKVSCKASGYTLTDYYIHWVRQAPGQGLEWVGWINPNSGGTNYEQKFQGRVTMTWDTSISTAYMELSRLTSDDTAVYYCAREGWSNDWYVGYYFDYWGQGTLVTVSS VL: DIQMTQSPLSLSASVGDRVSITCRASQYIGTSLNWYEQKPGNSPKLLITGASRLQSGVPSRFSGSGSGTDFTLTINTLQPDDLATYYCHQSYDDPPTFGQGTKLEIK	–	–	binds	–	~0.07	0.0643	–
5C8 (antibody, V domains shown, also called anti-LAG3 antibody 5C8) VH: QVQLVQSGAEVKKPGASVKVSCKASGYTFTSYGISWVRQAPGQGLEWMGWISAYNGNTNYAQKLQGRVTMTTDTSTSTAYMELRSLRSEDTAVYYCARDSGYDFEDWFDPWGQGTLVTVSS VL: not shown	–	–	–	–	~0.02	–	no binding (tested: 2 µg/mL)
